Biological target: T1, His-Smurf1 (UniProt Q9HCE7-2 1-731)
T1 construct: Smurf1, inserted into pET-28a; also called His-tagged Smurf1; source: Escherichia coli BL21, purified
Experiment: pull-down; bacteria-expressed GST-tagged protein immobilised on glutathione-Sepharose 4B beads, incubated with His-tagged protein for 8 h at 4 °C; washed with GST-binding buffer (100 mM NaCl, 50 mM NaF, 2 mM EDTA, 1% NP-40); immunoblotting
Conditions: both partners purified

T1 sequence (Q9HCE7 other isoform, or with tags, fused parts or gaps): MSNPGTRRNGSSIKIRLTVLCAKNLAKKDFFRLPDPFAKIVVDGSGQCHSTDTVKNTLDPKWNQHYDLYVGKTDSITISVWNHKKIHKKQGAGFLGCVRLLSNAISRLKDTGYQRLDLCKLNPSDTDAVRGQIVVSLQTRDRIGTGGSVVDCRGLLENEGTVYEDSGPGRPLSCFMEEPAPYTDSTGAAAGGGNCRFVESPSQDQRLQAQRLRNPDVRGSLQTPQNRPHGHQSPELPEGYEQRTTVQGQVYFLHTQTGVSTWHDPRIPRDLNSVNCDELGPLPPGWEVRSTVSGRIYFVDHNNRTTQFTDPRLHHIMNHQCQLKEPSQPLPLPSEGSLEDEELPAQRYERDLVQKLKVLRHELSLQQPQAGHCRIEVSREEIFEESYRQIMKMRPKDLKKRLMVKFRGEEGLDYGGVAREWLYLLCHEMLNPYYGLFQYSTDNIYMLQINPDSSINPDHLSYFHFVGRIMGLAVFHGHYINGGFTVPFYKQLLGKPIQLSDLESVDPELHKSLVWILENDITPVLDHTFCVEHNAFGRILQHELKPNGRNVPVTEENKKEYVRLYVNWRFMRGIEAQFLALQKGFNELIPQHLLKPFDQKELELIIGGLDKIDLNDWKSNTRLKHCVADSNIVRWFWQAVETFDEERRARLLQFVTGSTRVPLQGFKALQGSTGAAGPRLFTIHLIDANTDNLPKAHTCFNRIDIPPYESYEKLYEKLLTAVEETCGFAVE

B1: GST-SRSF5 (natural protein, UniProt Q13243 1-272, looked up)
chain: MSGCRVFIGRLNPAAREKDVERFFKGYGRIRDIDLKRGFGFVEFEDPRDADDAVYELDGKELCSERVTIEHARARSRGGRGRGRYSDRFSSRRPRNDRRNAPPVRTENRLIVENLSSRVSWQDLKDFMRQAGEVTFADAHRPKLNEGVVEFASYGDLKNAIEKLSGKEINGRKIKLIEGSKRHSRSRSRSRSRTRSSSRSRSRSRSRSRKSYSRSRSRSRSRSRSKSRSVSRSPVPEKSQKRGSSSRSKSPASVDRQRSRSRSRSRSVDSGN
notes: splicing factor SRSF5, inserted into pGEX-6P-1; also called GST–SRSF5 fusion protein; source: Escherichia coli BL21, purified; immobilised on glutathione-Sepharose 4B beads
binding result: binds
